Like-named read-outs stand apart in the source and are kept apart here.
Experiments:
Test in all cases: EMSA
RAD52 full-length [1] = target: T1, RAD52 full-length (Homo sapiens, UniProt P43351 1-418)
T1 sequence: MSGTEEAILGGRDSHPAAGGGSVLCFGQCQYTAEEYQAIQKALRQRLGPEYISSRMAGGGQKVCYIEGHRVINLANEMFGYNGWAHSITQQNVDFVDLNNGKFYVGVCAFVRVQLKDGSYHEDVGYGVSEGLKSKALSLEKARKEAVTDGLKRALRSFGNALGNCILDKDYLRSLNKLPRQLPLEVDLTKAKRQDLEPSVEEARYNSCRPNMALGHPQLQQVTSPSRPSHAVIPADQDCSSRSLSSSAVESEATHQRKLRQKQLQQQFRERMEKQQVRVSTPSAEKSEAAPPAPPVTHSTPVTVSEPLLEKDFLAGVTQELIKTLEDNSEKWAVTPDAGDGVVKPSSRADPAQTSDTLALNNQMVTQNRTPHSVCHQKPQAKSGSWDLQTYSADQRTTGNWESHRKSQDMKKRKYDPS

RAD52 full-length [2] = target: T1, RAD52 full-length; remark: listed apart in the source
RAD52 full-length [3] = target: T1, RAD52 full-length; remark: listed apart in the source
RAD52 full-length [4] = target: T1, RAD52 full-length; remark: listed apart in the source

Binder: ACAGCACCAGATTCAGCAATTAAGCTCTAAGCCATCCGCA (ssDNA) [ISE#1 40-mer ssDNA]
- binding result (RAD52 full-length [1]): binds

Binder: AAUACCGCAUCAGGAAAUUGUAAGCGUUAAUAUUUUGUUA (ssRNA) [CA#1 40-mer ssRNA]
- binding result (RAD52 full-length [2]): binds

Binder: TGCGGATGGCTTAGAGCTTAATTGCTGAATCTGGTGCTGT (ssDNA) [ISE#4 40-mer ssDNA]
- binding result (RAD52 full-length [3]): binds

Binder: UGCGGAUGGCUUAGAGCUUAAUUGCUGAAUCUGGUGCUGU (ssRNA) [ISE#3 40-mer ssRNA]
- binding result (RAD52 full-length [4]): binds
